Results reported in patent US20160287696A1, “PAN POLLEN IMMUNOGENS AND METHODS AND USES FOR IMMUNE RESPONSE MODULATION” (LA JOLLA INSTITUTE FOR ALLERGY AND IMMUNOLOGY, priority 2013, published 2016).

B1: NTGA 27: Phl p wild type sequence, Table 2 (protein)
chain: MSAYCGKYKDELIKNAAYIGTPGKGILAADESTGTIGKRFASINVENVEDNRRALRELLFTTPGALQHISGVILFEETLYQSSKAGKPFVDILKENNVLPGIKVDKGTVELAGTDKETTTQGHDDLGKRCAKYYEAGARFAKWRAVLKIGPNEPSQLSIDQNAQGLARYAIICQENGLVPIVEPEILVDGPHDIERCAYVTEVVLAACYKALNDQHVLLEGSLLKPNMVTPGSDAKKVAPEVIAEYTVRTLQRTVPPAVPAIVFLSGGQSEEEATVNLNAMNKLQTKKPWFLSFSFGRALQQSTLKAWSGKEENVEKAQKAFLVRCKANSEATLGTYKGDATLGEGASESLHVKDYKY
modifications: Phleum Pratense
B2: NTGA 24: Phl p wild type sequence, Table 2 (protein)
chain: MATKRSVGTLGEADLKGKKVFLRADLNVPLDDAQKITDDTRIRASIPTIKFLLEKGAKVILASHLGRPKGVTPKFSLKPLVPRLSELLGVEVVMANDCIGEEVEKLAAALPEGGVLLLENVRFYKEEEKNDPEFAKKLASVADLYVNDAFGTAHRAHASTEGVTKFLRPSVAGFLMQKELDYLVGAVANPKKPFAAIVGGSKVSSKIGVIESLLAKVDILILGGGMIFTFYKAQGKAVGKSLVEEDKLELATSLIETAKAKGVSLLLPTDVVVADKFAPDAESKTVSADAIPDGWMGLDVGPDSIKTFSEALDTTKTVIWNGPMGVFEFEKFAAGTDAIAKQLADLTGKGVTTIIGGGDSVAAVEKAGLADKMSHISTGGGASLELLEGKPLPGVLALDEA
modifications: Phleum Pratense
B3: NTGA 2: Phl p wild type sequence, Table 2 (protein)
chain: MASPALISDTDQWKALQAHVGAIHKTHLRDLMADADRCKALTAEFEGVFLDYSRQQATTETVDKLFKLAEAAKLKEKIAKMFNGDKINSTENRSVLHVALRAPRDAVINSDGVNVVPEVWAVIDKIKQFSETFRSGSWVGATGKPLTNVVSVGIGGSFLGPLFVHTALQTDPEAAESAKGRQLRFLANVDPVDVARSIKDLDPETTLVVVVSKTFTTAETMLNARTIKEWIVSSLGPQAVSKHMIAVSTNLKLVKEFGIDPNNAFAFWDWVGGRYSVCSAVGVLPLSLQYGFPIVQRFLEGASSIDNHFRTASFEKNIPVLLGLLSVWNVSFLGYPARAILPYSQALEKLAPHIQQLSMESNGKGVSIDGVPLPYEAGEIDFGEPGTNGQHSFYQLIHQGRVIPCDFIGVIKSQQPVYLKGETSNHDELMSNFFAQPDALASRKTPAPLRSENVSENLIPHKTFKGNRPSLSFLLSSLSAYEIGQLLAIYEHRIAVQGFIWGINSFDQWGVELGKSLASQVRKQLHASRMEGKPVEGFNPSSASLLARYLAVEPSTPYDTTVLPKV
modifications: Phleum Pratense
B4: NTGA 7: Phl p wild type sequence, Table 2 (protein)
chain: MAFEKIKVANPIVEMGDEMTRVFWQSIKEKLIFPFLDLDIKYYDLGVLHRDATDDKVTVEAAEATLKYNVAIKCATITPDEDRVKEFNLKQMWRSPNGTIRNIINGTVFREPIICKNVPKLVPGWTKPICIGRHAFGDQYRATDAVLKGPGKLRLVFEGKDETVDLEVFNFTGAGGVALAMYNTDESIQGFAEASMAIAYEKKWPLYLSTKNTILKKYDGRFKDIFQAVYEADWKSKYEAAGIWYEHRLIDDMVAYALKSEGGYVWACKNYDGDVQSDFLAQGFGSLGLMTSVLMCPDGKTIEAEAAHGTVTRHFRVHQKGGETSTNSIASIFAWTRGLAHRAKLDDNARLLDFTQKLEDACVGTVESGKMTKDLALLVHGSSKVTRGDYLNTEEFIDAVAAELQSRLAAN
modifications: Phleum Pratense
B5: NTGA 53: Phl p wild type sequence, Table 2 (protein)
chain: MDRNPVAKNAGKFMTLAGVLDYAKASNISGILIGIEHAAYLATRGLDVVDAVSNALIKSGYDKETKQQVFIQSEDPPVLSAFKKFPKFNRVFEIEFDIRDVSKPSVVEIKEFANAVKLRRSSAAQVDGFYLTGFNAVVERLRDADIQVHVGVLKNEFMSLAFDYWADPMVEIATDTWSVLADGLVTEFPSTAAAYFRSPCSDIKRNMSYTIKPGEPGALVDMAAYGALPPAPPPAPVLEPADVHRQPLPLCPTEPMFRTFRCRLPPKETGKNAEYTANLAADG
modifications: Phleum Pratense
B6: NTGA 1: Phl p (Timothy grass pollen) wild type sequence, Table 2 (protein)
chain: MAATIQSVKARQIFDSRGNPTVEVDVCCSDGTFARAAVPSGASTGVYEALELRDGGSDYLGKGVLKAVDNVNSIIGPALIGKDPTEQTELDNFMVHQLDGTKNEWGWCKQKLGANAILAVSLAVCKAGALVKKIPLYQHIANLAGNKQLVLPVPAFNVINGGSHAGNKLAMQEFMILPTGASSFKEAMKMGVEVYHNLKSVIKKKYGQDATNVGDEGGFAPNIQENKEGLELLKTAIEKAGYTGKVVIGMDVAASEFYGEKDQTYDLNFKEENNDGSQKISGDSLKNVYKSFVSEYPIVSIEDPFDQDDWVHYAKMTEEIGEQVQIVGDDLLVTNPTRVAKAIAEKSCNALLLKVNQIGSVTESIEAVKMSKRAGWGVMTSHRSGETEDTFIADLAVGLSTGQIKTGAPCRSERLAKYNQLLRIEEELGAAAVYAGLKFRAPVEPY
modifications: Phleum Pratense
B7: NTGA 89: Phl p wild type sequence, Table 2 (protein)
chain: MSAADKVKPAASPAAEDPAAIAGNISYHAHYSPHFSPLAFGPEPAYFATAESVRDHLLQRWNDTYLHFHKTDPKQTYYLSMEYLQGRALTNAVGNLGITGAYAEAVKKFGYELEALAGQERDMALGNGGLGRLAACFLDSMATLNLPAWGYGLRYRYGLFKQRIAKEGQEEIAEDWLEKFSPWEIVRHDVVYPVRFFGHVEILPDGRRKSAGGEVLNALAYDVPIPGYKTKNAISLRLWDAKASAEDFNLFQFNDGQYESAAQLHSRAQQICAVLYPGDATEEGKLLRLKQQFFLCSASLQDIIFRFKERKSDRVSGKWSEFPSKVAVQMNDTHPTLAIPELMRLLMDEEGLGWDEAWDVTNKTVAYTNHTVLPEALEKWSQSVMRKLLPRQMEIIEEIDKRFREMVISTRKDMEGKLDSMSVLDNSPQKPVVRMANLCVVSAHTVNGVAELHSNILKEELFADYVSIWPKKFQNKTNGITPRRWLRFCNPELSEIVTKWLKTDQWTSNLDLLTGLRKFADDEKLHAEWAAAKLASKKRLAKHVLDATGVTIDPTSLFDIQIKRIHEYKRQLMNILGAVYRYKKLKEMSAEEKQKVTPRTVMVGGKAFATYTNAKRIVKLVNDVGAVVNNDPDVNKYLKVVFIPNYNVSVAEVLIPGSELSQHISTAGMEASGTSNMKFSLNGCVIIGTLDGANVEIREEVGEDNFFLFGAKADQVAGLRKDRENGLFKPDPRFEEAKQYIRSGTFGTYDYTPLLDSLEGNSGFGRGDYFLVGYDFPSYIDAQARVDEAYKDKKRWIKMSILNTAGSGKFSSDRTIDQYAKEIWGITANPVP
modifications: Phleum Pratense

Each molecule was assayed on cultured PBMCs of the allergic donors (assay: ELISPOT of IL-5 or IFNg production by cultured PBMCs of TG allergic donors in response to peptide). Conditions: not given.
Assay type: cell-based, human
From the text: Table 1 indicates for each of the 397 PG+ peptides in which non-grass pollen species a matching peptide with either less than 3, less than 2 or zero mismatches are found. The number of TG grass allergic donors (n=20) with an in vitro T cell response to the TG peptide sequence is also shown.
A set of 93 proteins from Timothy grass (TG) pollen and the assembly of 822 peptides (15 mers) predicted to promiscuously bind HLA class II molecules shown in Table 9 and the immune reactivity in allergic donors have been reported in PCT application WO 2013/119863. […] Immune reactivity was determined by the production of IL-5 or IFNg from cultured PBMCs of the allergic donors in response to stimulation with a peptide and IL-5 and IFNg were measured by ELISPOT as described in Oseroff C et al, 2010.
In short, T cell immune reactivity was determined using PBMCs isolated from study participants and stored in liquid nitrogen until further use. For experimental testing, PBMCs were thawed and expanded in vitro with TG pollen extract (50 μg/mL) or the peptide pool ([…]). The TG extract and peptide pools had each been previously titrated to determine optimal stimulation concentrations.
Cytokine production by cultured PBMCs in response to antigen stimulation was measured by ELISPOT. Cells (1×10^5 cells/well) were plated and incubated with peptide (10 μg/mL), the peptide pool (5 μg/mL), or the TG extract (50 μg/mL). Phytohaemagglutinin (10 μg/mL) and medium alone were used as positive and negative controls, respectively. Samples were considered to produce a cytokine if 100 spot-forming cells (SFCs)/10^6 PBMCs were detected, with P .05 and a stimulation index of 2 or more. Criteria for individual peptides were the same except that a minimum of 20 SFCs were required for a sample to be counted as positive.
Table 3 lists the 397 PG+ peptides and indicates for each non-grass pollen species whether a matching peptide with either less than 3, less than 2 or zero mismatches could be detected. The immune reactivity of the TG peptide was assessed as the number of TG grass allergic donors (n=20) having in vitro T cell response against the TG peptide.

B1 was tested, and the “immune reactivity (SFC counts in ELISPOT) of highly conserved PG+ peptides derived from the NTGA” value (from here on “immune reactivity”) was “high immune reactivity”.
B2 was tested, and the “immune reactivity” value was “high immune reactivity”.
B3 was tested, and the “immune reactivity” value was “high immune reactivity”.
In the case of B4, the “immune reactivity” value is reported as “high immune reactivity”.

Same assay, conditions: NTGA number given = criterion met; TG allergic donors n=20

First: B1
Second: B2
The “NTGA's containing at least one T cell epitope, Th+ (Col 2)” value (“NTGA's containing” below) of the first is higher: 27 for the first, 24 for the second.

First: B5
Second: B6
The “NTGA's containing” value of the first is higher: 53 for the first, 1 for the second.

Compared with B3, B4 is higher in “NTGA's containing” value: 2 for the first, 7 for the second.

In the case of B7, the “NTGA's containing” value is reported as 89.

Same assay, conditions: Table 6; PG+ peptides recognized by T cells of grass allergic donors (n=20)

First: B1
Second: B2
The “No of PG+ & th+ peptides per NTGA” value of the first is lower: 5 for the first, 11 for the second.

Compared with B5, B6 is higher in “No of PG+ & th+ peptides per NTGA” value: 3 for the first, 5 for the second.

First: B3
Second: B4
The “No of PG+ & th+ peptides per NTGA” value of the first is higher: 15 for the first, 9 for the second.

For B7, the “No of PG+ & th+ peptides per NTGA” value was 13.

Same assay, conditions: Table 6; PP peptides recognized by T cells of grass allergic donors (n=20)

Compared with B1, B2 is higher in “No of PP & Th+ peptides per NTGA” value: 4 for the first, 8 for the second.

Compared with B5, B6 is higher in “No of PP & Th+ peptides per NTGA” value: 1 for the first, 4 for the second.

Compared with B3, B4 is lower in “No of PP & Th+ peptides per NTGA” value: 12 for the first, 6 for the second.

For B7, the “No of PP & Th+ peptides per NTGA” value was 0.

Same assay, conditions: Table 7; peptides per NTGA recognized by T cells of grass allergic donors (n=20)

Compared with B1, B2 is higher in “# Th+” value: 0 for the first, 2 for the second.

Going from B5 to B6, the “# Th+” value falls from 3 to 0.

Compared with B3, B4 is lower in “# Th+” value: 5 for the first, 4 for the second.

For B7, the “# Th+” value was 4.

Same assay, conditions: among top pan-pollen NTGA's ranked by number of PP peptides

With B5 the “T cell reactivity of sequences contained in the protein” value (“T cell reactivity” for short) was “highly T cell reactive sequences”.
With B3 the “T cell reactivity” value was “highly T cell reactive sequences”.
B4 was tested, and the “T cell reactivity” value was “highly T cell reactive sequences”.

Same assay, conditions: n=20 grass allergic donors; PG+ peptides of the NTGA

With B2 the “PG+ peptides recognized by grass allergic donors” value (from here on “PG+ peptides recognized”) was “two”.
With B3 the “PG+ peptides recognized” value was “two”.
With B4 the “PG+ peptides recognized” value was “two”.
For B7, the “PG+ peptides recognized” value was “two”.
